Laboratory results: article doi:10.1101/2024.05.10.593590

T1: U(702-745) (human, UniProt Q00839 702-745)
T1 chain: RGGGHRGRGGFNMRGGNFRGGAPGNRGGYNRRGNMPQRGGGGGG

T2: RGG1 (minimal first RGG/RG motif) (human, UniProt Q00839 702-745)
T2 chain: T1 chain

B1: Syncrip (structured_RNA)
RNA: GAGGGAGGGGAGGGAAGGGAAGGGAAGGGAAGGGGGGGUCACGCGGGGGCGCGCGCGCGCACCGGGAGCGCGCUCGGAGGCGAGUGGAACUGGAUCGGGUUUGCUGCCAGCGGCGUGAGCUUC
B2: Antisense Syncrip (structured_RNA)
RNA: GAAGCUCACGCCGCUGGCAGCAAACCCGAUCCAGUUCCACUCGCCUCCGAGCGCGCUCCCGGUGCGCGCGCGCGCCCCCGCGUGACCCCCCCUUCCCUUCCCUUCCCUUCCCUCCCCUCCCUC
B3: MTRNR2L6 (structured_RNA)
RNA: GCUAUACAUAUAUUGACCCAAUAAUUUGAUCAACGGAACAAGUUACCCUAGGGAUAACAGCGCAAUCCUAUUCUAGAGUCCAUAUUGACAAUAGGGUUUACGACCUCGAUGUUGGAUCAGGACAUCCUAAUGGUGUAGC
B4: Antisense MTRNR2L6 (structured_RNA)
RNA: GGCUACACCAUUAGGAUGUCCUGAUCCAACAUCGAGGUCGUAAACCCUAUUGUCAAUAUGGACUCUAGAAUAGGAUUGCGCUGUUAUCCCUAGGGUAACUUGUUCCGUUGAUCAAAUUAUUGGGUCAAUAUAUGUAUAG
B5: MTRNR2L6 antisense 200 nt (ssRNA)
RNA: GAAUCAUUGAACAAAUGAACCCUUGAUAGCAGCUACACCAUUAGGAUGUCCUGAUCCAACAUCGAGGUCGUAAACCCUAUUGUCAAUAUGGACUCUAGAAUAGGAUUGCGCUGUUAUCCCUAGGGUAACUUGUUCCGUUGAUCAAAUUAUUGGGUCAAUAUAUGUAUAGUAAUUCGCUUAAACUUGUUUAGUCUUAGCAC
B6: MTRNR2L6 antisense 100 nt (ssRNA)
RNA: GAGGAUUGCGCUGUUAUCCCUAGGGUAACUUGUUCCGUUGAUCAAAUUAUUGGGUCAAUAUAUGUAUAGUAAUUCGCUUAAACUUGUUUAGUCUUAGCAC
B7: MTRNR2L6 sense 100 nt (ssRNA)
RNA: GUGCUAAGACUAAACAAGUUUAAGCGAAUUACUAUACAUAUAUUGACCCAAUAAUUUGAUCAACGGAACAAGUUACCCUAGGGAUAACAGCGCAAUCCUA
B8: MTRNR2L6 antisense 250 nt (ssRNA)
RNA: GUGUACCAGACCUGGCUUGCUCCGGUCUGAACUCAGACCACGUAGGACUUUAAUCAUUGAACAAAUGAACCCUUGAUAGCAGCUACACCAUUAGGAUGUCCUGAUCCAACAUCGAGGUCGUAAACCCUAUUGUCAAUAUGGACUCUAGAAUAGGAUUGCGCUGUUAUCCCUAGGGUAACUUGUUCCGUUGAUCAAAUUAUUGGGUCAAUAUAUGUAUAGUAAUUCGCUUAAACUUGUUUAGUCUUAGCAC
B9: MTRNR2L6 antisense 150 nt (ssRNA)
RNA: GUGAUCCAACAUCGAGGUCGUAAACCCUAUUGUCAAUAUGGACUCUAGAAUAGGAUUGCGCUGUUAUCCCUAGGGUAACUUGUUCCGUUGAUCAAAUUAUUGGGUCAAUAUAUGUAUAGUAAUUCGCUUAAACUUGUUUAGUCUUAGCAC
B10: MTRNR2L6 antisense 300 nt (ssRNA)
RNA: GUUGUUUUAAAAAGACUUAUAGAUGGGAGGUGUGGAGGACUUAAAUACACAUGUACCAGACCUGGCUUGCUCCGGUCUGAACUCAGACCACGUAGGACUUUAAUCAUUGAACAAAUGAACCCUUGAUAGCAGCUACACCAUUAGGAUGUCCUGAUCCAACAUCGAGGUCGUAAACCCUAUUGUCAAUAUGGACUCUAGAAUAGGAUUGCGCUGUUAUCCCUAGGGUAACUUGUUCCGUUGAUCAAAUUAUUGGGUCAAUAUAUGUAUAGUAAUUCGCUUAAACUUGUUUAGUCUUAGCAC
B11: MTRNR2L6 sense 75 nt (ssRNA)
RNA: GUGCUAAGACUAAACAAGUUUAAGCGAAUUACUAUACAUAUAUUGACCCAAUAAUUUGAUCAACGGAACAAGUUA
B12: MTRNR2L6 sense 150 nt (ssRNA)
RNA: GUGCUAAGACUAAACAAGUUUAAGCGAAUUACUAUACAUAUAUUGACCCAAUAAUUUGAUCAACGGAACAAGUUACCCUAGGGAUAACAGCGCAAUCCUAUUCUAGAGUCCAUAUUGACAAUAGGGUUUACGACCUCGAUGUUGGAUCAG
B13: MTRNR2L6 sense 250 nt (ssRNA)
RNA: GUGCUAAGACUAAACAAGUUUAAGCGAAUUACUAUACAUAUAUUGACCCAAUAAUUUGAUCAACGGAACAAGUUACCCUAGGGAUAACAGCGCAAUCCUAUUCUAGAGUCCAUAUUGACAAUAGGGUUUACGACCUCGAUGUUGGAUCAGGACAUCCUAAUGGUGUAGCUGCUAUCAAGGGUUCAUUUGUUCAAUGAUUAAAGUCCUACGUGGUCUGAGUUCAGACCGGAGCAAGCCAGGUCUGGUACAU
B14: MTRNR2L6 sense 300 nt (ssRNA)
RNA: GUGCUAAGACUAAACAAGUUUAAGCGAAUUACUAUACAUAUAUUGACCCAAUAAUUUGAUCAACGGAACAAGUUACCCUAGGGAUAACAGCGCAAUCCUAUUCUAGAGUCCAUAUUGACAAUAGGGUUUACGACCUCGAUGUUGGAUCAGGACAUCCUAAUGGUGUAGCUGCUAUCAAGGGUUCAUUUGUUCAAUGAUUAAAGUCCUACGUGGUCUGAGUUCAGACCGGAGCAAGCCAGGUCUGGUACAUGUGUAUUUAAGUCCUCCACACCUCCCAUCUAUAAGUCUUUUUAAAACAAA
B15: MTRNR2L6 sense 200 nt (ssRNA)
RNA: GUGCUAAGACUAAACAAGUUUAAGCGAAUUACUAUACAUAUAUUGACCCAAUAAUUUGAUCAACGGAACAAGUUACCCUAGGGAUAACAGCGCAAUCCUAUUCUAGAGUCCAUAUUGACAAUAGGGUUUACGACCUCGAUGUUGGAUCAGGACAUCCUAAUGGUGUAGCUGCUAUCAAGGGUUCAUUUGUUCAAUGAUUA
B16: MTRNR2L6 antisense 75 nt (ssRNA)
RNA: GAACUUGUUCCGUUGAUCAAAUUAUUGGGUCAAUAUAUGUAUAGUAAUUCGCUUAAACUUGUUUAGUCUUAGCAC

Target: T1, U(702-745)
Assay: fluorescence anisotropy

B1 showed a Kd of 910 ± 150 nM.

Each binder was assayed against U(702-825) (human, UniProt Q00839) (assay: fluorescence anisotropy).
U(702-825), sequence (Q00839 702-825): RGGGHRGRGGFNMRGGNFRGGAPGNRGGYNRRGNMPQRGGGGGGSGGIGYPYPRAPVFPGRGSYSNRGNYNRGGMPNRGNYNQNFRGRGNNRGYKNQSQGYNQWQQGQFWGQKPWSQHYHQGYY

Point of comparison: B1, Kd 70 ± 19 nM. Against it:
- B2 — 8.1-fold higher, 570 ± 10 nM
- B3 — 3.1-fold higher, 220 ± 10 nM
- B4 — 6.4-fold higher, 450 ± 10 nM

These binders were tested against U(702-809) (human, UniProt Q00839 702-809) (assay: fluorescence anisotropy).
U(702-809), sequence (Q00839 702-809): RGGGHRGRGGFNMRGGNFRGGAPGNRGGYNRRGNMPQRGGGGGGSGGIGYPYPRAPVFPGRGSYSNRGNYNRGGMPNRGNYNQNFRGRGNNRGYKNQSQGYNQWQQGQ

Point of comparison: B3, Kd 710 ± 10 nM. Against it:
- B2 — 2.3-fold higher, 1600 ± 100 nM
- B4 — within 1.5-fold, 810 ± 60 nM
- B1 — 5.1-fold lower, 140 ± 50 nM

Each binder was assayed against U(702-761) (human, UniProt Q00839 702-761) (assay: fluorescence anisotropy).

B1 was tested, and the Kd was 1100 ± 400 nM.

Target: T2, RGG1 (minimal first RGG/RG motif)
Assay: fluorescence anisotropy

Point of comparison: GAGGGAGGGGAGGGAAGGGAAGGGAAGGGAAGGGGGGGAAACUUC (structured_RNA) [Syncrip G-quad], Kd ~1000 nM. Against it:
- B1 — the same, ~1000 nM

The binders below were run against U(702-793) (human, UniProt Q00839 702-793) (assay: fluorescence anisotropy).
U(702-793), sequence (Q00839 702-793): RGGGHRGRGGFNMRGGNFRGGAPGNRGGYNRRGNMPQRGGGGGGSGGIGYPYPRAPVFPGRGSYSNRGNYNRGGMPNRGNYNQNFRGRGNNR

Point of comparison: B2, Kd 3000 ± 200 nM. Against it:
- B3 — 2.7-fold lower, 1100 ± 100 nM
- B4 — 2.5-fold lower, 1200 ± 100 nM
- B1 — 17-fold lower, 180 ± 50 nM

Each binder was assayed against U(702-777) (human, UniProt Q00839 702-777) (assay: fluorescence anisotropy).
U(702-777), sequence (Q00839 702-777): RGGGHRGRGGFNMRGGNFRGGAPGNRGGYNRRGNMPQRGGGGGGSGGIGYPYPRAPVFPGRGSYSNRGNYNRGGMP

Point of comparison: B2, Kd 14000 ± 2000 nM. Against it:
- B3 — 3.3-fold lower, 4200 ± 500 nM
- B4 — 3.6-fold lower, 3900 ± 900 nM
- B1 — 31-fold lower, 450 ± 160 nM

The binders below were run against U-CTD (hnRNP U RBD) (human, UniProt Q00839 673-825) (assay: fluorescence anisotropy).
U-CTD (hnRNP U RBD), sequence (Q00839 673-825): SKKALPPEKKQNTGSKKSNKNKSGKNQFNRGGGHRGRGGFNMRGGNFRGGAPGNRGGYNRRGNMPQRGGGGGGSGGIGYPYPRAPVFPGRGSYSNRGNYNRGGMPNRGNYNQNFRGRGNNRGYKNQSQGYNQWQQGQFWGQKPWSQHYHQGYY

Point of comparison: B6, “apparent K (half saturation)” value 280 ± 20 nM. Against it:
- GGGGUCAAUAUAUGUAUAGUAAUUCGCUUAAACUUGUUUAGUCUUAGCAC (ssRNA) [MTRNR2L6 antisense 50 nt] — 1.7-fold higher, 480 ± 40 nM
- GUGCUAAGACUAAACAAGUUUAAGCGAAUUACUAUACAUAUAUUGACCCA (ssRNA) [MTRNR2L6 sense 50 nt] — 3.6-fold higher, 1000 ± 100 nM
- GUGCUAAGACUAAACAAGUUUAAGC (ssRNA) [MTRNR2L6 sense 25 nt] — 18-fold higher, 4900 ± 700 nM
- B5 — within 1.5-fold, 230 ± 10 nM
- B7 — 1.9-fold lower, 150 ± 20 nM
- B8 — 2.5-fold lower, 110 ± 10 nM
- B9 — within 1.5-fold, 190 ± 10 nM
- B10 — 2.5-fold lower, 110 ± 10 nM
- B11 — within error, 320 ± 30 nM
- B12 — 2.2-fold lower, 130 ± 10 nM
- GCUUAAACUUGUUUAGUCUUAGCAC (ssRNA) [MTRNR2L6 antisense 25 nt] — 21-fold higher, 6000 ± 300 nM
- B13 — 2.8-fold lower, 100 ± 10 nM
- B14 — 2.5-fold lower, 110 ± 10 nM
- B15 — within 1.5-fold, 210 ± 20 nM
- B16 — within 1.5-fold, 410 ± 30 nM
